B1: Unmasked mLcn2-Fc: masked mLcn2-Fc treated with MMP9, mask released (protein)
chain: QDSTSDLIPAPPLSKVPLQQNFQDNQFHGKWYVVGLAGNRILRDDQHPMNMYATIYELKEDKSYNVTSVISSHKKCEYTIATFVPGSQPGEFTLGNIKSYGDKTSYLVRVVSTDYNQYAVVFFKLAEDNAEFFAITIYGRTKELASELKENFIRFSKSLGLPENHIVFPVPIDQCIDG
modifications: left off: small tags and cut ends; a dimerising Fc or GST
notes: masked mLcn2-Fc treated with MMP9, mask released
B2: mLcn2-Fc: mLcn2 fused to IgG1 Fc without a mask fused to the N-terminus (positive control) (protein)
chain: B1 chain
modifications: left off: a dimerising Fc or GST
B3: mLCN2: modified lipocalin2 used as a CTLA-4 antagonist, SEQ ID NO:34 (protein, listed as Homo sapiens)
chain: B1 chain

What was measured:
pituicytes = experiment: In vivo binding of mLcn2 variants to cells within the pituitary gland; settings: naïve mice, i.v. 100 μg, 48 hr post-dose, human IgG staining
Description: FIG. 5: Binding of CTLA-4 antagonist mLcn2 variants to cells within the pituitary gland.
(§1) FIG. 9: Biodistribution of mLcn2-Fc constructs in vivo. (A-C) Naïve mice were injected i.v. with 100 μg of indicated mLcn2-Fc construct and tissue samples were collected 48 hr. post-dose. Cryosections were stained for CD4 or CD8 (medium gray) and human IgG (light gray) from the thymus (A), spleen (B), and pituitary gland (C, IgG only). (D) Melanoma-bearing mice were injected as above and tumor samples were collected 72 hr. post-dose. 4′,6-diamidino-2-phenylindole (DAPI) nuclear staining shown in dark gray.
FIG. 18: Naïve mice were injected i.v. with 100 μg of indicated mLcn2-Fc construct and tissue samples were collected 48 hr. post-dose. Cryosections were stained for human IgG (light gray).
(§2) In these experiments constructs were injected i.v. into C57/B16 mice bearing B16 melanomas. Three days after injection, tumor and tissue samples were collected and doublestained using antibodies recognizing either CD4 or CD8 and mLcn2 (e.g. human IgG-Fc). Membranes of both intratumoral CD4+ and CD8+ T cells were decorated with mLcn2 which was not detected on other cell types.

[1] = test system: human CTLA4-Fc on Tni insect cells; experiment: Flow cytometry of Tni insect cells transiently expressing human CTLA4-Fc; assay type: cell-based; settings: Alexa Fluor-647 conjugated variants
Chain of human CTLA4-Fc on Tni insect cells (P16410 36-161 limits assumed): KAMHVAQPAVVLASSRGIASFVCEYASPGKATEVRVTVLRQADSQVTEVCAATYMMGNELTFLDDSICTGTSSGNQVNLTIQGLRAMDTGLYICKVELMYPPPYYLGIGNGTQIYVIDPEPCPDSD
From the text: FIG. 10C: Flow cytometry analysis of Tni insect cells induced to transiently express human CTLA4-Fc. Cells were stained with Alexa Fluor-647 conjugated mLcn2-Fc variants and gated for Forward scatter/Side scatter, DAPI^−, singlet size (pulse width), and APC. Uninfected cells stained with mLcn2-Fc are shown in grey as a negative control.

[2] = test system: tumor-infiltrating lymphocytes (TILs) in B16 tumor tissues; experiment: In vivo detection of mLcn2 variants in B16 tumor tissues (IHC); settings: i.v. 100 μg, melanoma-bearing mice, tumor samples 72 hr post-dose; listed as unmasked (MMP9-pretreated) mLcn2
Description: FIG. 4: In vivo detection of mLcn2 variants (CTLA-4 binding protein variants) in B16 tumor tissues.
as §1
FIG. 17: Melanoma-bearing mice were injected i.v. with 100 μg of indicated mLcn2-Fc construct and tumor samples were collected 72 hr. post-dose. Cryosections were stained for CD4 or CD8 (medium gray) and human IgG (light gray). […] 4′,6-diamidino-2-phenylindole (DAPI) nuclear staining shown in dark gray.
as §2

[3] = test system: CD4/CD8 negative cells in the spleen; experiment: In vivo binding of mLcn2 constructs in the spleen; design: species or system mice; settings: not shown; potentially due to FcR binding
Description: as §1
FIG. 16: Naïve mice were injected i.v. with 100 μg of indicated mtLCN2-Fc construct and tissue samples were collected 48 hr. post-dose. Cryosections were stained for CD4 or CD8 (medium gray) and human IgG (light gray) from the spleen.
as §2

CTLA-4 = experiment: Size-exclusion chromatography analysis of CTLA-4 binding to mLcn2-Fc constructs
Chain of CTLA-4 (P16410 36-161 limits assumed): as above

CTLA-4-Fc = experiment: SPR kinetics of monomeric mLCN2 and dimeric mLCN2-Fc on immobilized CTLA-4-Fc; assay type: binding; settings: dimeric CTLA-4-Fc immobilized at medium density on CM5 chip
Chain of CTLA-4-Fc (P16410 36-161 limits assumed): as above
Description: FIG. 10A: SPR analysis. Dimeric CTLA-4-Fc was immobilized at medium density to a CM5 chip. A range of 3-1000 nM monomeric mLCN2 (top) and 3-300 nM dimeric mLCN2-Fc (bottom) analytes were used for kinetics analyses. […] Concentration of analytes is 1000; 300; 30; and 3 nM.

[4] = test system: murine, primate and human CTLA-4; experiment: CTLA-4 species cross-reactivity of mLcn2; assay type: binding

Row | Molecule | binding to pituitary gland cells (pituicytes) | binding to CTLA4-Fc expressing Tni cells [1] | staining of CD4 or CD8 TILs in tumor [2] | binding in the spleen [3] | CTLA-4 binding by SEC (CTLA-4; FIG. 3B) | SEC elution volume of construct incubated with CTLA-4 (CTLA-4; Superdex 200, apo CTLA-4 13.0 mL, apo constructs ~12.7 mL) [mL] | ka (CTLA-4-Fc) | kd (CTLA-4-Fc) | CTLA-4 binding across species [4]
1 | B1 | bound equally well to pituicytes | showed binding to cells | membrane staining of tumor-infiltrating lymphocytes (TILs) | bound to CD4/CD8 negative cells in the spleen | binding of CTLA-4 only to unmasked mLcn2-Fc constructs | 11.3 |  |  | 
2 | B2 | bound equally well to pituicytes | showed binding to cells |  |  |  |  | 1.0 E4 M^−1 s^−1 | could not be determined as it was beyond the limitations of the instrument | 
3 | B3 | reactivity with non-immune cells in the pituitary glands |  |  |  |  |  | 3.6 E4 M^−1 s^−1 | 2.0 E-4 s^−1 | binds to murine, primate and human CTLA-4
